According to a protein production outcome set (Wang et al. 2014):

assay: label from the status in PepcDB records
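Further: failed if final PepcDB status was selected cloned or expressed and not failed if soluble or beyond.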

Sequence	protein production
MKKTPIYVEISIQAEMERLWRYTQDPTLHRQWDLRFTDITYLKRRPGEPQRFLYETRIGFGLKISGTGESAGNVFQDTGDRVSSLKFATNHPLSVIREGRGYWKYSESETGITFMTQYDYDTRYGRLGRLADMAFRPLLGWATAWSFDALKIWLEKGLHPRLLFQKTLVYWLVCLLFSFVWIYQGLVPKLIMAHPGEISMLSAFTGGRFHPETLLRLIGLAEVMVGVLWLYPVRKRKWFLLHIVLLVLLSASAGMADIASFAEPFNPVVLNAALIILSVIGYVSACGIPNAGNTIRKRR	failed
MKKVFDVWDVETAKRFLEIIKDEPIYYPALIALHTGMRAGEILSLKWCDVNFETRVISIVKSERKNRGLKTVNLKTKTSKRAVYMNDILYKELKNLYEITKPKPDDFVCPRLPTGNLTVNYLSRKFKKLVKKHNFPLIRFHDLRHTFATLMLSLGVNTKIVAEILGHSDIKLTADTYSHVLPTMQEEAMKEFVKLWKLEHHHHHH	not failed
MKKVSIIIPFKGQTEAELMLPLSSIYNQIGVDLSQLDIHLVNDGGKTIDLSKFDVLADRLEIHYHEIPNGGPGVARQYGIDNSISEYIMFIDADDVLYYVGALWPFYNASNQGHQMIRASYWEQIAGNPYTYTVHGNGDRKAAYGKWYKRSYIEMLGLRFMPDLPIYEDTYFVGLACELATDTCFLEEKVYMWLANPNSITRTVENKFNYQAHIYARENRYWFEMIRKWKPECLEHHHHHH	failed
MKKVSIIIPFKGQTEAELMLPLSSIYNQIGVDLSQLDIHLVNDGGKTIDLSKFDVLADRLEIHYHEIPNGGPGVARQYGIDNSISEYIMFIDADDVLYYVGALWPFYNASNQGHQMIRASYWEQIAGNPYTYTVHGNGDRKAAYGKWYKRSYIEMLGLRFMPDLPIYEDTYFVGLACELATDTCFLEEKVYMWLANPNSITRTVENKFNYQAHIYARENRYWFEMIRKWKPECLVTDFENYLTNMYLKSQKYPPVDEKAWWEEQHKLITSVSDIFSGWTQELQKQVEDKSANPQNEWHGIETDGFKEWATQSLPW	failed
MKKYIKPSAILLTLILSACSETKTVQQLISSGNSFVQVRDFSSAVIEFKNAVRLEPKNANARFELGNAYLEQGNFVNAEKEFSRAVELGLDFSNIAALMARVNTHLDKADEVYQLVERSDELTDDDYVEVLTYAGITALKQNRISQGQDYLTQAIVINPDAAYSRIAQAYVHYADREFSQGIVVISNLLNEKTDATEAMLIQGHLYYAQQEFEHASGAFALYLNYHPQDHKIRFFEVNSLIKAEKFEQANVITNTLLKAFKDSSLALQFKAQLEYQKKNYSAARDYAEEALQHGQDFLGAKIIAGVSSYFLGDVEQAYTKLNGIVERVPNNLLVKKILAVTKFELGYYADAAENFSSLEGLTSADLQLLKSSSASLMGIGYVDNALSLINKAEEFSPDNAQVAAQKGLMLLSQNDISGINSMKRAVELDPSLTYVQVALAIGYLNIGEENKAQKIADLYKDKIDEADVGHVLEGFIYLNNKQSANAQVSFEKALSLNPKNIASLYNLGLLHKRAAENSKAIIYFDRLIALSPEHKGALKSLVSIAVNKEYLEEVLTILVRNHQTDNLYSIIALAQVLRIDQQVAKAVTTLGGIDKSVKLTSNYFMLLGDSYLELEKYLKANAIFEQGLALEPKDYLLNIRYISTLEWLGDYTAALDQTRRLHKYYPNNINITTSLIYLEVRNKNYQEAKYLLEAIKGQKSNHHQLDAIAGEIYSYEKDYPQAIEHFSVVYEKEPTELNLLNLARTLGFDKQNKQAERLLELYLDKNPNNSKIRFLLAELYNPQDRKKRVVQYQVLSTQIPNNAIVFNNLAWNQFKLKQTAEALINIEKAYQLQPDSLAIQESYGVILIANNKLSQGINILESAILSGSTDAAAKEYLIKAKTLLNNQGKSSG	failed
MKKYSTIPTPCYVLESERLEKNAKILEIVRQQSGAKVLLALKGYAFWREFGILRQKLNGCCASGLYEAKLAFEEFGGRESHKEICVYSPAFKEAEMSAILPLATSIIFNSFYQYATYKDRILDKNKQLENLGLSPIKMGLRINPLYSEVTPAIYNPCSKVSRLGITPSGFEKGVKEHGLEGVSGLHFHTHCEQNADALCRTLEHVEKHFRPYLENMAWVNFGGGHHITKSDYDVNLLIQTIKDFKERYHNIEVILEPGEAIGWQCGFLIASVIDIVQNDQEIAILDASFSAHMPDCLEMPYRPSIFKVSVENDEELIEVEKGENQGAFSYFLGGPTCLAGDFMGSFSFETPLKRGDKIVFQDMLHYTIVKNNSFNGVPLPSLARLDQQGFKILKNFSYEDYKNRN	failed
MKLAMIGFGQAGGKIVDKFLEYDKETGSGIVRSAVAVNTAKADLLGLEHIPEENRVLIGQARVKGHGVGADNELGAEIAEEDIDEVQGAIDNIPVHEVDAFLIVAGLGGGTGSGGSPVVAKHLKRIYTEPVYGLGVLPGSDEGGIYTLNAARSFQTFVREVDNLMVFDNDAWRQTGESVEGGYDHINEEIVRRFGVLFGAGEIEAGDNVAESVVDSSEIINTLDGGGVSTVGYASEDVEVSSGGGGLLSRFKGDDSSDDSMDTANTTNRITSLVRKAALGRLTLPCEIEGAERALLVMAGPPEHLNRKGIERGRKWLEEQTGSMEVRGGDYPTNAPKVAASILLAGVHNVPRIKELQQVAIEAQDNIDDIRNQSEDNLEDLVEDDEDELDPLF	failed
MKLDHNFSNQAIDAFIKISALSVLVLWCFSILKPFLLLMVWGGIIATALYPIVAFFSKKTALSESKVSIILTVIGVLLLLIPLVALSTGIYTSGTELFLGYQDGSIAIPKPKERMQDWPIIGHEAYSFMSLASSNLESLLFKYSAEVKVVAAKAASLVGSLGGGFIQFIVSTIIAGVFMANAAKCERAFILITNRLTGKHGEELIKLSKITIRSVVQGVIGVAVIQATMAGLGMAVVGISASVLGLWVFLVLVFAIIQLPPILILLPIIFYVFSVDTTTAGVLFAVWCVLVSSSDAILKPVLLSRGSHIPIIVILLGALGGMAMSGIVGLFVGAVVLSLTYQMFTVWLKNEAEETQNAKDNP	failed
MKLEAEAVAPSNIAIVKYWGKRDRELNLPLNSSLSISLDSLWVRSRVIFDESLDKDEVIINGKRLSENEVREYAGRVLRRFRDLYGKELFARVESTTNFPSSAGLASSAAGIAALTYASNAALGLGLSNRELSKIARVGSGSACRSMFGGFVKWNRGELESGDDSFCEEIFPPDHWPDLVDIIPIFGEEKKKVSSRTGMENTATSSALMRCRLQFIEETFNEVIDAIRTKNAGKFFQLTMRHSNSMHAVILDSWPPMNYLNEKSFRVMEWVVEFGKAAYTFDAGPNPHIFVLEKDVDEVLKFLNEIGSTKTIVSRVGKGPYLI	failed
MKLERQKLLAKVAYLYYMEGKSQSEIANELGIYRTTISRMLAKAREEGLVRIEISDFNPEIFQLESYFKSKYHLKDIEIVSSRKDSDTSEIEKDLAHVAAAMIRKKIKENDKVGIAWGRTLSKVVEAMRPHPVSQVSFVPLAGGPSHINARYHVNTLVYEMSRRFQGSCTFINATLVQENANLAKGILTSKYFEGLMDNWEKLDVAIVGVGGKPKSNEQQWLDLLNQDDFQCLDEEAAVGEITCRFFNHSGDPVNQHLAKRTIGITLEQLQKVPNRIAVAHGNYKAAALLAVLKKGYINHLVTDFSTALNILRLDKDTFVDTIYQKS	not failed
MKLESNAFEKAFSSDPAPLGLAGFAFTTFLLSFINAGLIPASGVNVVVPLAIAYGGLAQLITGSWEMRRGNNFGFTAFTSYGSFWIFYALMVILADLHIINALPAVAVGWALILWGIFTLYMWGGAMMASMSLNLTFLFLWLTFVVLGLGAIYSSVALTHAGGYLGILSAFFAAYTSFAIIINSMKPGTIPVGPGMFHKKAGK	failed
MKLFKELEETKEQVIKMAKLVQEAIDKATEALNKQNVELAEEVIKGDDTIDLLEVDIERRCIRMIALYQPEAGDLRMIMGIYKIVSDLERMGDEAENIAERAILLAEEPPLKPYVNINFMSEIVKEMVNDSVISFIQQDTLLAKKVIEKDDTVDELYHQLERELMTYVLEDPRNIKRAMHLSFVARHYERIADHAENVAEAAIYLSEGEIVKHQHIKEKGE	not failed
MKLFSSGRKTPTSSPASSHAGAMDETVGVTSTSEAANVATQPVPTPVEDVPNGVRTAAGWCWRMIVIAAFIYGLYQVLHAASEVSVPVAVALMLTAAMWPLANWLSRHHIHRGIASGICLLLLVILVGGVFTLVGAQIALQWRQLGDQSVASFKQALQWLAKSPLHTNEAQLTHLMQKAEAAMAGSQGRIASTAAAAGSQIGRFGAGLVMALFATFFFVYEGDKLAEKSAVLIPREHRAAILDAAKRGWVALVAYVRAAVIVAFVDGLGAGIGAAIIGSSMSVAIGALTFILAFVPIVGALTAGVVAVGVVLVTLGFFKAFIMLIVFVAVMQIEGHVLQPFLLGKAVSIHPLIVLLGIAVGAIISGIVGALFAIPIVAFGVAFIKALNPETPANEVPPNHDDLAAEHT	failed
MKLIKNGKVLQNGELQQADILIDGKVIKQIAPAIEPSNGVDIIDAKGHFVSPGFVDVHVHLREPGGEYKETIETGTKAAARGGFTTVCPMPNTRPVPDSVEHFEALQKLIDDNAQVRVLPYASITTRQLGKELVDFPALVKEGAFAFTDDGVGVQTASMMYEGMIEAAKVNKAIVAHCEDNSLIYGGAMHEGKRSKELGIPGIPNICESVQIARDVLLAEAAGCHYHVCHVSTKESVRVIRDAKRAGIHVTAEVTPHHLLLTEDDIPGNNAIYKMNPPLRSTEDREALLEGLLDGTIDCIATDHAPHARDEKAQPMEKAPFGIVGSETAFPLLYTHFVKNGDWTLQQLVDYLTIKPCETFNLEYGTLKENGYADLTIIDLDSEQEIKGEDFLSKADNTPFIGYKVYGNPILTMVEGEVKFEGDK	failed
MKLIKVILSSISQVVLINNPYTGLFILIGLFAVNWKVGISAMIASVMTWILAPYMNYTKEEIESGLAGFNPVLTAIALTLFLDSNWSGILITFVATILTLPIGAAVREVLKPHKIAFLTSPYVIMTWITLLIPNQLKTLHTQIDIIPEHIEKVSLNNDHTRVHFFQSVLDGFGQIFLMPSIIGGLLILIGIFIGSKKAGIVSIIANIIGFLIIILLGGDYSSINEGIFGYNVVLSAIALGVTFETAIHSYLAMILGIVLTAFIHLGLSTLLAPLGLPTLTWPFIFATWIMLFAGIKNQSV	failed
MKLKEVTEGKVRIFVPDPTGYMVEGKFDPSWAPVFYNPKMTFNRDLSVIVVSILKPKIIVDALSATGIRGIRYYVESWKSEQLILNDKNPNATSLIQINAKNNGIENAKIYNKDANALLYEVKSDYIDIDPFGSPAPFILSSLNAATRNGIVAFTATDLSPLEGSSPTSCRRKYDAINHKLSSSKELGLRVLIGKIIREAAILEKTVYPLFSFYADYYYRLFVRVENGARKADDNINKHLKYFGECPRCGFQTFVEENCKTKCPVCGEIFSIIGPLYIGPLYSMEFLKRIMDLYSNFNYLTSFNRIQKLLNVIEKEARFKNVFYNISKLASKLKISAIPPIESILECLGDASRTHFAPTGIRTDKEYEEITKCIKSLR	failed
MKLKGKGIGKVVVEGEVIVSRKPLSFLGGVDPETGTITDPESDIKGESITGKILVFPKGKGSTVGSYILYALSKNGKGPKAIIVEEAEPIVTAGAIISGIPLITNVDISKLKTGMRVRINPQEGEVEILAEGNLLEHHHHHH	failed
MKLKSYILVGYIISTLLTILVVFWAVQKMLIAKGEIYFLLGMTIVASLVGAGISLFLLLPVFTSLGKLKEHAKRVAAKDFPSNLEVQGPVEFQQLGQTFNEMSHDLQVSFDSLEESEREKGLMIAQLSHDIKTPITSIQATVEGILDGIIKESEQAHYLATIGRQTERLNKLVEELNFLTLNTARNQVETTSKDSIFLDKLLIECMSEFQFLIEQERRDVHLQVIPESARIEGDYAKLSRILVNLVDNAFKYSAPGTKLEVVAKLEKDQLSISVTDEGQGIAPEDLENIFKRLYRVETSRNMKTGGHGLGLAIARELAHQLGGEITVSSQYGLGSTFTLVLNLSGSENKA	failed
